Starred links: 1 amine or outer side, 2 acyl side, 3 side chain; linkers in the order of their positions; H or OH if unused. Non-standard residues stand in square brackets, D forms with d. dProc3Bn4Im4NMe = (2R,3S)-3-(4-(1-methyl-1H-imidazol-4-yl)benzyl)pyrrolidine-2-carboxylic acid, Cn1cnc(-c2ccc(C[C@H]3CCN([*:1])[C@H]3C(=O)[*:2])cc2)c1; dProc3Bn4Im2NMe = (2R,3S)-3-(4-(1-methyl-1H-imidazol-2-yl)benzyl)pyrrolidine-2-carboxylic acid, Cn1ccnc1-c1ccc(C[C@H]2CCN([*:1])[C@H]2C(=O)[*:2])cc1; dProc3Bn4Iso3Me = (2R,3S)-3-(4-(3-methylisoxazol-4-yl)benzyl)pyrrolidine-2-carboxylic acid, Cc1nocc1-c1ccc(C[C@H]2CCN([*:1])[C@H]2C(=O)[*:2])cc1; dProc3Bn4Pyr2 = (2R,3S)-3-[[4-(2-pyridyl)phenyl]methyl]pyrrolidine-2-carboxylic acid, O=C([C@H]1[C@@H](Cc2ccc(-c3ccccn3)cc2)CCN1[*:1])[*:2]; dProc3CH2Pyrim = (2R,3S)-3-(pyrimidin-5-ylmethyl)pyrrolidine-2-carboxylic acid, O=C([C@H]1[C@@H](Cc2cncnc2)CCN1[*:1])[*:2]; TyrEtNAc = (2S)-3-[4-(2-acetamidoethoxy)phenyl]-2-amino-propanoic acid, CC(=O)NCCOc1ccc(C[C@H](N[*:1])C(=O)[*:2])cc1; Phe(4-(trans-4-COOH-cHex)) = N[C@@H](Cc1ccc([C@H]2CC[C@H](C(=O)O)CC2)cc1)C(=O)O; Phe(4-(cis-4-COOH-cHex)) = N[C@@H](Cc1ccc([C@H]2CC[C@@H](C(=O)O)CC2)cc1)C(=O)O; Trp(βS-Me,4-F) = C[C@@H](c1c[nH]c2cccc(F)c12)[C@H](N)C(=O)O; 3Aminoazetidine3carboxyl = O=C(C1(N[*:1])CN([*:3])C1)[*:2]; Bip(4'-COOH) = N[C@@H](Cc1ccc(-c2ccc(C(=O)O)cc2)cc1)C(=O)O; dPro(4R-Bzl(4-F)) = O=C(O)[C@H]1C[C@@H](Cc2ccc(F)cc2)CN1; Ala(pyrimidin-5-yl) = N[C@@H](Cc1cncnc1)C(=O)O; Phe(4-COOH) = N[C@@H](Cc1ccc(C(=O)O)cc1)C(=O)O; Pro(cis-4-F) = O=C(O)[C@@H]1C[C@H](F)CN1; 3Pal = N[C@@H](Cc1cccnc1)C(=O)O; 4Pal = N[C@@H](Cc1ccncc1)C(=O)O; αMeK = C[C@](N)(CCCCN)C(=O)O; Api = NC1(C(=O)O)CCNCC1; Dab = NCC[C@H](N)C(=O)O; Dap = NC[C@H](N)C(=O)O; Aib = CC(C)(N)C(=O)O
B1: SEQ ID NO: 72 (peptide)
peptide: cyclo([Bip(4'-COOH)][4Pal][Phe(4-COOH)]G[Pro(cis-4-F)][Trp(βS-Me,4-F)][Aib]EW[Aib][3Pal]Q[Dab]G[dPro(4R-Bzl(4-F))])
B2: SEQ ID NO: 66 (peptide)
peptide: cyclo([Bip(4'-COOH)][4Pal][Phe(4-COOH)]G[Pro(cis-4-F)][Trp(βS-Me,4-F)][αMeK]EW[Aib][Ala(pyrimidin-5-yl)]Q[Dab]G[dPro(4R-Bzl(4-F))])
SMILES: C[C@@H](c1c[nH]c2cccc(F)c12)[C@@H]1NC(=O)[C@@H]2C[C@H](F)CN2C(=O)CNC(=O)[C@H](Cc2ccc(C(=O)O)cc2)NC(=O)[C@H](Cc2ccncc2)NC(=O)[C@H](Cc2ccc(-c3ccc(C(=O)O)cc3)cc2)NC(=O)[C@H]2C[C@@H](Cc3ccc(F)cc3)CN2C(=O)CNC(=O)[C@H](CCN)NC(=O)[C@H](CCC(N)=O)NC(=O)[C@H](Cc2cncnc2)NC(=O)C(C)(C)NC(=O)[C@H](Cc2c[nH]c3ccccc23)NC(=O)[C@H](CCC(=O)O)NC(=O)[C@](C)(CCCCN)NC1=O
B3: SEQ ID NO: 61 (peptide)
peptide: cyclo([Bip(4'-COOH)][4Pal][Phe(4-COOH)]G[Pro(cis-4-F)][Trp(βS-Me,4-F)][Aib]EW[Aib][Ala(pyrimidin-5-yl)]Q[Dab]G[dProc3Bn4Pyr2])
SMILES: C[C@@H](c1c[nH]c2cccc(F)c12)[C@@H]1NC(=O)[C@@H]2C[C@H](F)CN2C(=O)CNC(=O)[C@H](Cc2ccc(C(=O)O)cc2)NC(=O)[C@H](Cc2ccncc2)NC(=O)[C@H](Cc2ccc(-c3ccc(C(=O)O)cc3)cc2)NC(=O)[C@H]2[C@@H](Cc3ccc(-c4ccccn4)cc3)CCN2C(=O)CNC(=O)[C@H](CCN)NC(=O)[C@H](CCC(N)=O)NC(=O)[C@H](Cc2cncnc2)NC(=O)C(C)(C)NC(=O)[C@H](Cc2c[nH]c3ccccc23)NC(=O)[C@H](CCC(=O)O)NC(=O)C(C)(C)NC1=O
B4: SEQ ID NO: 70 (peptide)
peptide: cyclo([TyrEtNAc][4Pal][Phe(4-COOH)][Pro(cis-4-F)][Trp(βS-Me,4-F)][Aib]EW[Aib][Ala(pyrimidin-5-yl)]Q[Dab]G[dProc3CH2Pyrim])
SMILES: CC(=O)NCCOc1ccc(C[C@@H]2NC(=O)[C@H]3[C@@H](Cc4cncnc4)CCN3C(=O)CNC(=O)[C@H](CCN)NC(=O)[C@H](CCC(N)=O)NC(=O)[C@H](Cc3cncnc3)NC(=O)C(C)(C)NC(=O)[C@H](Cc3c[nH]c4ccccc34)NC(=O)[C@H](CCC(=O)O)NC(=O)C(C)(C)NC(=O)[C@H]([C@@H](C)c3c[nH]c4cccc(F)c34)NC(=O)[C@@H]3C[C@H](F)CN3C(=O)[C@H](Cc3ccc(C(=O)O)cc3)NC(=O)[C@H](Cc3ccncc3)NC2=O)cc1
B5: SEQ ID NO: 62 (peptide)
peptide: cyclo([Bip(4'-COOH)][4Pal][Phe(4-COOH)]G[Pro(cis-4-F)][Trp(βS-Me,4-F)][Aib]EW[Aib][Ala(pyrimidin-5-yl)]Q[Dab]G[dProc3Bn4Iso3Me])
SMILES: Cc1nocc1-c1ccc(C[C@H]2CCN3C(=O)CNC(=O)[C@H](CCN)NC(=O)[C@H](CCC(N)=O)NC(=O)[C@H](Cc4cncnc4)NC(=O)C(C)(C)NC(=O)[C@H](Cc4c[nH]c5ccccc45)NC(=O)[C@H](CCC(=O)O)NC(=O)C(C)(C)NC(=O)[C@H]([C@@H](C)c4c[nH]c5cccc(F)c45)NC(=O)[C@@H]4C[C@H](F)CN4C(=O)CNC(=O)[C@H](Cc4ccc(C(=O)O)cc4)NC(=O)[C@H](Cc4ccncc4)NC(=O)[C@H](Cc4ccc(-c5ccc(C(=O)O)cc5)cc4)NC(=O)[C@@H]23)cc1
B6: SEQ ID NO: 63 (peptide)
peptide: cyclo([Bip(4'-COOH)][4Pal][Phe(4-COOH)]G[Pro(cis-4-F)][Trp(βS-Me,4-F)][Aib]EW[Aib][Ala(pyrimidin-5-yl)]Q[Dab]G[dProc3Bn4Im2NMe])
SMILES: C[C@@H](c1c[nH]c2cccc(F)c12)[C@@H]1NC(=O)[C@@H]2C[C@H](F)CN2C(=O)CNC(=O)[C@H](Cc2ccc(C(=O)O)cc2)NC(=O)[C@H](Cc2ccncc2)NC(=O)[C@H](Cc2ccc(-c3ccc(C(=O)O)cc3)cc2)NC(=O)[C@H]2[C@@H](Cc3ccc(-c4nccn4C)cc3)CCN2C(=O)CNC(=O)[C@H](CCN)NC(=O)[C@H](CCC(N)=O)NC(=O)[C@H](Cc2cncnc2)NC(=O)C(C)(C)NC(=O)[C@H](Cc2c[nH]c3ccccc23)NC(=O)[C@H](CCC(=O)O)NC(=O)C(C)(C)NC1=O
B7: SEQ ID NO: 69 (peptide)
peptide: cyclo([Phe(4-(cis-4-COOH-cHex))][4Pal][Phe(4-COOH)]G[Pro(cis-4-F)][Trp(βS-Me,4-F)][Aib]EW[3Aminoazetidine3carboxyl][Ala(pyrimidin-5-yl)]Q[Dab]G[dPro(4R-Bzl(4-F))])
SMILES: C[C@@H](c1c[nH]c2cccc(F)c12)[C@@H]1NC(=O)[C@@H]2C[C@H](F)CN2C(=O)CNC(=O)[C@H](Cc2ccc(C(=O)O)cc2)NC(=O)[C@H](Cc2ccncc2)NC(=O)[C@H](Cc2ccc([C@H]3CC[C@@H](C(=O)O)CC3)cc2)NC(=O)[C@H]2C[C@@H](Cc3ccc(F)cc3)CN2C(=O)CNC(=O)[C@H](CCN)NC(=O)[C@H](CCC(N)=O)NC(=O)[C@H](Cc2cncnc2)NC(=O)C2(CNC2)NC(=O)[C@H](Cc2c[nH]c3ccccc23)NC(=O)[C@H](CCC(=O)O)NC(=O)C(C)(C)NC1=O
B8: SEQ ID NO: 68 (peptide)
peptide: cyclo([Phe(4-(trans-4-COOH-cHex))][4Pal][Phe(4-COOH)]G[Pro(cis-4-F)][Trp(βS-Me,4-F)][Aib]EW[3Aminoazetidine3carboxyl][Ala(pyrimidin-5-yl)]Q[Dab]G[dPro(4R-Bzl(4-F))])
SMILES: C[C@@H](c1c[nH]c2cccc(F)c12)[C@@H]1NC(=O)[C@@H]2C[C@H](F)CN2C(=O)CNC(=O)[C@H](Cc2ccc(C(=O)O)cc2)NC(=O)[C@H](Cc2ccncc2)NC(=O)[C@H](Cc2ccc([C@H]3CC[C@H](C(=O)O)CC3)cc2)NC(=O)[C@H]2C[C@@H](Cc3ccc(F)cc3)CN2C(=O)CNC(=O)[C@H](CCN)NC(=O)[C@H](CCC(N)=O)NC(=O)[C@H](Cc2cncnc2)NC(=O)C2(CNC2)NC(=O)[C@H](Cc2c[nH]c3ccccc23)NC(=O)[C@H](CCC(=O)O)NC(=O)C(C)(C)NC1=O
B9: SEQ ID NO: 71 (peptide)
peptide: cyclo([Bip(4'-COOH)][4Pal][Phe(4-COOH)]G[Pro(cis-4-F)][Trp(βS-Me,4-F)][Aib]EW[Aib][Ala(pyrimidin-5-yl)]Q[Dab]G[dProc3CH2Pyrim])
SMILES: C[C@@H](c1c[nH]c2cccc(F)c12)[C@@H]1NC(=O)[C@@H]2C[C@H](F)CN2C(=O)CNC(=O)[C@H](Cc2ccc(C(=O)O)cc2)NC(=O)[C@H](Cc2ccncc2)NC(=O)[C@H](Cc2ccc(-c3ccc(C(=O)O)cc3)cc2)NC(=O)[C@H]2[C@@H](Cc3cncnc3)CCN2C(=O)CNC(=O)[C@H](CCN)NC(=O)[C@H](CCC(N)=O)NC(=O)[C@H](Cc2cncnc2)NC(=O)C(C)(C)NC(=O)[C@H](Cc2c[nH]c3ccccc23)NC(=O)[C@H](CCC(=O)O)NC(=O)C(C)(C)NC1=O
B10: SEQ ID NO: 7 (peptide)
peptide: cyclo([Bip(4'-COOH)][4Pal][Phe(4-COOH)]G[Pro(cis-4-F)][Trp(βS-Me,4-F)][Aib]EW[Aib][Ala(pyrimidin-5-yl)]Q[Dap]G[dPro(4R-Bzl(4-F))])
SMILES: C[C@@H](c1c[nH]c2cccc(F)c12)[C@@H]1NC(=O)[C@@H]2C[C@H](F)CN2C(=O)CNC(=O)[C@H](Cc2ccc(C(=O)O)cc2)NC(=O)[C@H](Cc2ccncc2)NC(=O)[C@H](Cc2ccc(-c3ccc(C(=O)O)cc3)cc2)NC(=O)[C@H]2C[C@@H](Cc3ccc(F)cc3)CN2C(=O)CNC(=O)[C@H](CN)NC(=O)[C@H](CCC(N)=O)NC(=O)[C@H](Cc2cncnc2)NC(=O)C(C)(C)NC(=O)[C@H](Cc2c[nH]c3ccccc23)NC(=O)[C@H](CCC(=O)O)NC(=O)C(C)(C)NC1=O
B11: SEQ ID NO: 65 (peptide)
peptide: cyclo([Bip(4'-COOH)][4Pal][Phe(4-COOH)]G[Pro(cis-4-F)][Trp(βS-Me,4-F)][Aib]EW[Api][Ala(pyrimidin-5-yl)]Q[Dab]G[dPro(4R-Bzl(4-F))])
SMILES: C[C@@H](c1c[nH]c2cccc(F)c12)[C@@H]1NC(=O)[C@@H]2C[C@H](F)CN2C(=O)CNC(=O)[C@H](Cc2ccc(C(=O)O)cc2)NC(=O)[C@H](Cc2ccncc2)NC(=O)[C@H](Cc2ccc(-c3ccc(C(=O)O)cc3)cc2)NC(=O)[C@H]2C[C@@H](Cc3ccc(F)cc3)CN2C(=O)CNC(=O)[C@H](CCN)NC(=O)[C@H](CCC(N)=O)NC(=O)[C@H](Cc2cncnc2)NC(=O)C2(CCNCC2)NC(=O)[C@H](Cc2c[nH]c3ccccc23)NC(=O)[C@H](CCC(=O)O)NC(=O)C(C)(C)NC1=O
B12: SEQ ID NO: 67 (peptide)
peptide: cyclo([Bip(4'-COOH)][4Pal][Phe(4-COOH)]G[Pro(cis-4-F)][Trp(βS-Me,4-F)][Aib]EW[αMeK][Ala(pyrimidin-5-yl)]Q[Dab]G[dPro(4R-Bzl(4-F))])
B13: SEQ ID NO: 64 (peptide)
peptide: cyclo([Bip(4'-COOH)][4Pal][Phe(4-COOH)]G[Pro(cis-4-F)][Trp(βS-Me,4-F)][Aib]EW[Aib][Ala(pyrimidin-5-yl)]Q[Dab]G[dProc3Bn4Im4NMe])
SMILES: C[C@@H](c1c[nH]c2cccc(F)c12)[C@@H]1NC(=O)[C@@H]2C[C@H](F)CN2C(=O)CNC(=O)[C@H](Cc2ccc(C(=O)O)cc2)NC(=O)[C@H](Cc2ccncc2)NC(=O)[C@H](Cc2ccc(-c3ccc(C(=O)O)cc3)cc2)NC(=O)[C@H]2[C@@H](Cc3ccc(-c4cn(C)cn4)cc3)CCN2C(=O)CNC(=O)[C@H](CCN)NC(=O)[C@H](CCC(N)=O)NC(=O)[C@H](Cc2cncnc2)NC(=O)C(C)(C)NC(=O)[C@H](Cc2c[nH]c3ccccc23)NC(=O)[C@H](CCC(=O)O)NC(=O)C(C)(C)NC1=O

molecular target: Recombinant human IL-1β (BioLegend 579404) (human, UniProt P01584 117-269); experiment: cell-based or functional assay

In order of falling “MRC5 IC50” value:
1. B4  0.081 nM
2. B9  0.058 nM
3. B7  0.03 nM
4. B8  0.029 nM
5. B2  0.028 nM
6. B1  0.027 nM
7. B10  0.026 nM
8. B11  0.025 nM
9. B3  0.022 nM
10. B5  0.021 nM
11. B12  0.021 nM
12. B6  0.018 nM
13. B13  0.014 nM
